Test results taken from patent US20040091475A1 (Chugai, published 2004).

Columns and labels:
[1] = target: T1, human Integrin Associated Protein (IAP) expressed on mouse leukemia cell line L1210 (human, UniProt Q08722 19-323); experiment: flow cytometry on L1210 cells expressing human IAP; COS7 culture supernatant; mouse anti-FLAG antibody, then FITC-labeled anti-mouse IgG antibody
T1 construct: whole, on cells; also called human IAP; hIAP/L1210
Method: Flow cytometry was performed using the aforementioned COS7 cells culture supernatant to measure the binding to the antigen. The culture supernatant of the COS7 cells expressing the reconstructed single chain Fv of antibody MABL-2 or the culture supernatant of COS7 cells transformed with pCHO1 vector as a control was added to 2×10⁵ cells of the mouse leukemia cell line L1210 expressing human Integrin Associated Protein (IAP) or the cell line L1210 transformed with pCOS1 as a control. After incubating on ice and washing, the mouse anti-FLAG antibody (SIGMA) was added. Then the cells were incubated and washed. Then, the FITC labeled anti-mouse IgG antibody (BECTON DICKINSON) was added thereto and the cells were incubated and washed again. Subsequently, the fluorescence intensity was measured using the FACScan apparatus (BECTON DICKINSON).

[2] = target: T2, secretion-type human IAP antigen (human, UniProt Q08722 19-142, limits assumed); experiment: competitive ELISA: secretion-type human IAP captured on anti-FLAG antibody; competitor biotinized MABL-2 antibody at 100 ng/ml; serial dilutions of COS7 culture supernatant (x axis: dilution ratio of CM, no concentration unit)
T2 construct: captured on plates coated with anti-FLAG antibody
Method: The binding activity of the reconstructed single chain Fv of antibody MABL-2 was measured based on the inhibiting activity against the binding of mouse monoclonal antibodies to the antigen.
The anti-FLAG antibody adjusted to 1 μg/ml was added to each well on 96-well plate and incubated at 37° C. for 2 hours. After washing, blocking was performed with 1% BSA-PBS. After incubating and washing at a room temperature, the culture supernatant of COS7 cells into which the secretion-type human IAP antigen gene (SEQ ID No. 26) had been introduced was diluted with PBS into twofold volume and added to each well. After incubating and washing at a room temperature, a mixture of 50 μl of the biotinized MABL-2 antibody adjusted to 100 ng/ml and 50 μl of sequentially diluted supernatant of the COS7 cells expressing the reconstructed single chain Fv of antibody MABL-2 were added into each well. After incubating and washing at a room temperature, the alkaline phosphatase-conjugated streptoavidin (Zymed) was added into each well. After incubating and washing at a room temperature, the substrate solution (SIGMA) was added and absorbance of the reaction mixture in each well was measured at 405 nm.

T2 sequence (Q08722 other isoform, or with tags, fused parts or gaps limits assumed): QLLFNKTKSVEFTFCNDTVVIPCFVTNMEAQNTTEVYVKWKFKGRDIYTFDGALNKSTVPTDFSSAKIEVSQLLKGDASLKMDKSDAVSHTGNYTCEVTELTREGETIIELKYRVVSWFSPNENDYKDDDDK
T1 sequence (Q08722 19-323): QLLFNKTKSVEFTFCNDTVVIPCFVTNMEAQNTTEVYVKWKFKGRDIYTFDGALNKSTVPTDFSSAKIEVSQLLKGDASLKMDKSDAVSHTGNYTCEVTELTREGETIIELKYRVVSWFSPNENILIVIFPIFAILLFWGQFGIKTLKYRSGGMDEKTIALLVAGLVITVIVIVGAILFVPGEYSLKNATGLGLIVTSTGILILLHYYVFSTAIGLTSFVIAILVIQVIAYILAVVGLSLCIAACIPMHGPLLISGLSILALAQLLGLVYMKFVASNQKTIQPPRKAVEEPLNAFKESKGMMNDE

- binding result [1]: binds
- binding result [2]: binds
B1: reconstructed single chain Fv of antibody MABL-2 (plasmid pCHOM2), culture supernatant of COS7 cells (scFv)
scFv: QVQLQQSGPELVKPGASVKMSCKASGYTFANHVIHWVKQKPGQGLEWIGYIYPYNDGTKYNEKFKDKATLTSDKSSTTAYMDLSSLASEDSAVYYCARGGYYTYDDWGQGTTLTVSSGGGGSGGGGSGGGGSDVVMTQSPLSLPVSLGDQASISCRSSQSLVHSNGKTYLHWYLQKPGQSPKLLIYKVSNRFSGVPDRFSGSGSVTDFTLMISRVEAEDLGVYFCSQSTHVPYTFGGGTKLEIKDYKDDDDK
notes: VH-(Gly4Ser)3-VL-FLAG; Unfractionated supernatant (monomer and dimer not separated); also called MABL2-scFv; MABL2-scFv/COS7
